Changes are numbered by the printed parent chain.
T1: Hot1 (Saccharomyces cerevisiae BY4741, UniProt Q03213 1-719)
T1 sequence: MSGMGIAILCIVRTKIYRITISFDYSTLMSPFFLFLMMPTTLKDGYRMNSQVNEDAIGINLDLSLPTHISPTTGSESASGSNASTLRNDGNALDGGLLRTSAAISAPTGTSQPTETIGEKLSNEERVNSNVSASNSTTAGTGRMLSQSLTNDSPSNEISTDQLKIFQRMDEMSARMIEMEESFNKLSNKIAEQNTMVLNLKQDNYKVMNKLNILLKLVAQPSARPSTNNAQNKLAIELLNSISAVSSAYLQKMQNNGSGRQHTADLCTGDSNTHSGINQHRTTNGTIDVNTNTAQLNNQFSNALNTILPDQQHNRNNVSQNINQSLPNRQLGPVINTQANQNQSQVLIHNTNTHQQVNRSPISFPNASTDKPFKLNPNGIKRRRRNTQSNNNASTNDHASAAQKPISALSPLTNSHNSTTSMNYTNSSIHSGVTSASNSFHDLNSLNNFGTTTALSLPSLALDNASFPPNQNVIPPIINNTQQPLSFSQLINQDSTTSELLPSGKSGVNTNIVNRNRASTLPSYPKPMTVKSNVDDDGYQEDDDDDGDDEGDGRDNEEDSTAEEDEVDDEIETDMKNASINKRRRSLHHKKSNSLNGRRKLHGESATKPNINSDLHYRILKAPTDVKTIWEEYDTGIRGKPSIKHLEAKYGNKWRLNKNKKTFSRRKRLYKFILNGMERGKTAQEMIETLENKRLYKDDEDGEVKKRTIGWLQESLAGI

B1: STL1 promoter HoRE, E6 probe (dsDNA)
DNA 1: CTATTCCACCGCATTTGGCCCATTTGGCTCACTTTGACTCAACTTGCGTCATTTTAACTGATATG
DNA 2: CATATCAGTTAAAATGACGCAAGTTGAGTCAAAGTGAGCCAAATGGGCCAAATGCGGTGGAATAG
B2: RM9 (E6 with mutated HoRE repeats) (dsDNA)
DNA 1: B1 DNA 1 with T15C, C19T, T24C, C28T, T34C, C38T
DNA 2: B1 DNA 2 with G28A, A32G, G38A, A42G, G47A, A51G

Legend:
[1] = target: T1, Hot1; experiment: EMSA
[2] = target: T1, Hot1; experiment: competition

Binder	binding result [1]	binding result [2]
B1	binds	–
B2	–	no binding
